We go through two molecules from US20250145697A1 (WASHINGTON UNIVERSITY, published 2025).

Usually EC50 stands for the concentration at which the effect is half-maximal. Usually Kd stands for the free concentration of one partner at which half of the binding sites on the other are occupied at equilibrium, for simple one-to-one binding. What is called koff is the first-order rate constant of dissociation. In general, kon refers to the rate constant with which the complex forms.

The target of assay [1] is T1, murine ApoE (mouse, UniProt P08226 19-311).
T1 sequence (looked up): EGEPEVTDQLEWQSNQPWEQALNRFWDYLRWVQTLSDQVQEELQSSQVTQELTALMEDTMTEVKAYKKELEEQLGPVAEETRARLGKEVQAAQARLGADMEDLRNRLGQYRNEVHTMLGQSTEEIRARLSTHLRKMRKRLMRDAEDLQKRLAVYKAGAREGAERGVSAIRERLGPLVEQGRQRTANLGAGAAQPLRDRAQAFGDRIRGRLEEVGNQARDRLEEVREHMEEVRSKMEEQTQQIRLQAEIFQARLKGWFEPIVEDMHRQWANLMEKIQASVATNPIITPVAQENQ
Description: not described.

For assay [2], the target named is T2, ApoE4 amino acids 54-164, expressed on yeast (human, UniProt P02649 72-182).
T2 construct: with myc tag, on yeast cells; expression in yeast printed as Low; range counts on the mature protein; also called helix2 + 3 + 4
T2 chain: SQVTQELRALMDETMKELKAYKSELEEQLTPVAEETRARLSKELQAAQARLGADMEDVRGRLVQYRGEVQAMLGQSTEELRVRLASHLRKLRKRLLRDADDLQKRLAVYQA
Description: yeast display of myc-tagged ApoE4 fragment, antibody staining. Here is the method: (§1) Epitope binding of various anti-ApoE antibodies was evaluated multiple ways. Different sequences of human ApoE were expressed on the surface of yeast by yeast display using different plasmids. Different anti-ApoE antibodies were then assessed to determine binding to the different ApoE sequences by immunofluorescence of the yeast cell surface (Table 4). Because none of the anti-ApoE antibodies tested here recognize murine ApoE, the epitope was further narrowed down by comparison of the murine and human ApoE sequences as shown in Tables 4 and 5. DNA constructs containing different regions of ApoE4 with myc tag were transformed into yeast cells. Yeast cells were incubated with HJ15x to detect binding or anti-myc antibody to detect expression.

Assay [3] deals with T3, ApoE4 amino acids 1-210, expressed on yeast (human, UniProt P02649 19-228).
T3 construct: with myc tag, on yeast cells; range counts on the mature protein; also called N terminal domain; not shown: myc tag and yeast surface-display partner
T3 chain: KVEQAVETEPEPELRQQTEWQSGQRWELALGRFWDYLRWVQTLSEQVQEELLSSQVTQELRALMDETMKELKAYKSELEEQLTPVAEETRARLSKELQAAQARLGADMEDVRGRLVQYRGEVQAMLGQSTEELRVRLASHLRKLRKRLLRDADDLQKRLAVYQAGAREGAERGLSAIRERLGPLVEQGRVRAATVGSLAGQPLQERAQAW
The description is as above. The procedure:
as §1

In assay [4] the target is T4, ApoE4 amino acids 24-164, expressed on yeast (human, UniProt P02649 42-182).
T4 construct: with myc tag, on yeast cells; range counts on the mature protein; also called helix1 + 2 + 3 + 4
T4 chain: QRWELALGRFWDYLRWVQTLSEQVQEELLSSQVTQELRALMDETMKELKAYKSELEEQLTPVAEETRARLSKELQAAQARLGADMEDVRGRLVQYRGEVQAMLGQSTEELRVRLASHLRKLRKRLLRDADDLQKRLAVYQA
The assay is described as above. The procedure:
as §1

Assay [5] deals with T5, ApoE4 amino acids 1-164, expressed on yeast (human, UniProt P02649 19-182).
T5 construct: with myc tag, on yeast cells; range counts on the mature protein; also called up to helix 4; not shown: myc tag and yeast surface-display partner
T5 chain: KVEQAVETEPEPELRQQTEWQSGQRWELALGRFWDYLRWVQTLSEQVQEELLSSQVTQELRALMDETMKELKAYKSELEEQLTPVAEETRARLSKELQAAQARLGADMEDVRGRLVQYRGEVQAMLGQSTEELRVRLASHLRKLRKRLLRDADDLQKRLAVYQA
The assay is described as above. Here is the method:
as §1

The target in assay [6] is T6, recombinant alipidated human ApoE4 (human, UniProt P02649 19-317).
T6 construct: mature; full length recombinant protein made in E. coli or bought; biotinylated for SPR; position 112 is counted on the mature protein, not on the precursor entry; also called recApoE; non-lipidated ApoE4
T6 sequence (P02649 19-317 C130R): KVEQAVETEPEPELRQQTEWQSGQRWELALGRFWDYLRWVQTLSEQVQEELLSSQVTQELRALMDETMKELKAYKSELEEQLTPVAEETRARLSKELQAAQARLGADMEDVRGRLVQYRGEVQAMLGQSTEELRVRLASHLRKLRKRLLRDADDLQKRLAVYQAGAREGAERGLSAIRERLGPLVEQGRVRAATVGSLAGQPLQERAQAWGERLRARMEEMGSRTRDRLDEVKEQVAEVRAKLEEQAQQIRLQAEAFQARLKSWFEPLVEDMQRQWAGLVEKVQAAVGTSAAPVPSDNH
Description: direct ELISA on coated recombinant alipidated ApoE (0.5 ug/ml). Here is the method:
(§2) ELISA dose response curves were generated for several anti-ApoE antibodies. Briefly, plates were coated overnight with full length recombinant alipidated ApoE2, ApoE3, or ApoE4 (0.5 μg/ml). The following days, plates were washed, blocked and then incubated with an anti-ApoE antibody. A goat, anti-mouse IgG-HRP antibody was used for secondary detection. Recombinant alipidated ApoE was either expressed solubly in E. coli and then purified, or purchased from a commercial supplier.

In assay [7] the target is T7, recombinant alipidated human ApoE3 (human, UniProt P02649 19-317).
T7 construct: mature; full length recombinant protein made in E. coli or bought
T7 sequence (P02649 19-317): as the sequence (P02649 19-317 C130R) above, with R112C counted along it
Described as above. The procedure: as §2

Assay [8] has as its target T6, recombinant alipidated human ApoE4. The assay can be described thus: SPR (Biacore T200), biotinylated ApoE4 captured on anti-biotin mAb chip, antibody injected, 1:1 fit. The procedure: The affinity of several anti-ApoE antibodies for ApoE4 was determined by surface plasmon resonance using a BIAcore T200. Anti-biotin monoclonal mouse antibody was immobilized on a Biacore Series S CM5 sensor chip. Biotinylated recombinant alipidated ApoE4 was then captured on to the chip. Serial dilutions of each antibody were injected at a flow rate of 30 μl/min. Each sample was analyzed, for example, with 3-minute association and 10-minute dissociation. After each injection the chip was regenerated using 3 M MgCl₂ or another appropriate buffer. Binding response was corrected by subtracting the response units (RUs) from a flow cell capturing an irrelevant IgG at similar density. A 1:1 Languir model of simultaneous fitting of Kₒₙ and Koff was used for kinetics analysis. Recombinant alipidated ApoE4 was either expressed in soluble form in E. coli and then purified, or purchased from a commercial supplier.
On the technique in general: SPR reads the build-up and loss of mass on a sensor chip optically.

In assay [9] the target is T8, ApoE4 amino acids 24-125, expressed on yeast (human, UniProt P02649 42-143).
T8 construct: with myc tag, on yeast cells; range counts on the mature protein; also called helix1 + 2 + 3
T8 chain: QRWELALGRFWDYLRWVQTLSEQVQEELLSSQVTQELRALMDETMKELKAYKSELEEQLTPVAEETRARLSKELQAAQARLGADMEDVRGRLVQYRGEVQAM
The assay can be described thus: yeast display of myc-tagged ApoE4 fragment, antibody staining. The procedure: as §1

For assay [10], the target named is T9, ApoE4 amino acids 1-132, expressed on yeast (human, UniProt P02649 19-150).
T9 construct: with myc tag, on yeast cells; range counts on the mature protein; also called up to helix 3; not shown: myc tag and yeast surface-display partner
T9 chain: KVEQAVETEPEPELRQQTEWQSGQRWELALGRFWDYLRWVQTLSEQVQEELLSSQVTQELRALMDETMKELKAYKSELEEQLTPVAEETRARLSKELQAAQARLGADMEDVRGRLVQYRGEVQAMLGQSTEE
The assay is described as above. Here is the method:
as §1

In assay [11] the target is T10, recombinant alipidated human ApoE2 (human, UniProt P02649 19-317).
T10 construct: mature; full length recombinant protein made in E. coli or bought
T10 sequence (P02649 19-317 R176C): as the sequence (P02649 19-317 C130R) above, with R112C, R158C counted along it
Description: direct ELISA on coated recombinant alipidated ApoE (0.5 ug/ml). Here is the method: as §2

B1: HJ155 (antibody, V domains shown)
VH: RVQLQQSGPGLVKPGASVKISCKASGYTFTDYYINWVRQRPGQGLEWIGWIFPGSGITYYNEKFKGKATLTVDRSSSTAYMLLSSLTSEDSAVYFCARYAYGSPFAYWGQGTLVTVSA
VL: DVLMTQTPLSLPVSLGDQASISCRSSQSIVHSNGNTYLEWYLQKPGQSPKLLIYKVSNRFSGVPDRFSGSGSGTDFTLKISRVEAEDLGVYYCFQGSHVPYTFGGGTKLEIKR
notes: murine monoclonal antibody from hybridoma; also called HJ155B (biotinylated)
For B1, the binding result in assay [1] was “no binding”; in assay [2] it was “binds”; in assay [3], “binds”; in [4], “binds”; in assay [5] it was “binds”. Besides, the results for the EC50 in assay [6] and in assay [7] were 1100 pM and 780 pM, respectively.

B2: HJ1526 (antibody, V domains shown)
VH: QVQLQQPGTALVKPGASVKLSCKSSGYTFTDYWVHWVKQRPGQGLEWIGNINPRNGGINYNENFKGKAILTVDRSFSIAYMQLNSLTSEDSAVYYCARPGATVVHRTPWFAHWGQGTLVTVSA
VL: EIVLTQSPALMAASPGEKVTITCSVSSSISSSNLHWFQQKSETSPKPWIFGTSYLASGVPVRFSGSGSGTSYSLTISSMEAEDAATYYCQQWNSYPLTFGAGTKLELR
notes: murine monoclonal antibody from hybridoma
Take B2: the Kd in assay [8] stood at 670000 pM. Further, the koff in [8] worked out at 0.00528 s⁻¹. Also, the association rate constant (kon) in [8] stood at 7880 M⁻¹ s⁻¹. Also, the binding result in [2], in [3], in [4], in assay [5], in [9] and in assay [10] was “binds” in each case. Further, the values for the EC50 in [6], in assay [11] and in assay [7] were 40 pM, 30 pM and 50 pM, respectively.
